In paper PMC9228142, “Going Retro, Going Viral: Experiences and Lessons in Drug Discovery from COVID-19”:

Target: nsp12 (RdRp catalytic subunit);nsp7;nsp8 (SARS-CoV-2;SARS-CoV-2;SARS-CoV-2, UniProt P0DTD1;P0DTD1;P0DTD1 4393-5324;3860-3942;3943-4140, ||)
Assay: EMSA
Conditions: protein: recombinant;recombinant;recombinant; tags: untagged (SUMO fusion cleaved, Ni2+-NTA and SEC purified);;; copies: 1;1;2; label: 5'-Cyanine 5.5

AAAAGAAAAGACGCGUAGUUUUCUACGCG (structured_RNA) [GA1 RNA scaffold]: binds.
